Assays:
108 of 110 HLA types = assay: cell-based or functional assay
[1] = biological target: the alloreactive alleles (2 of 110 HLA types); assay: cell-based or functional assay

B1: E7-11-28 MGTM (MG-modified TCR E7-11-28) (TCR)
TCR alpha: GQQVMQIPQYQHVQEGEDFTTYCNSSTTLSNIQWYKQRPGGHPVFLIQLVKSGEVKKQKRLTFQFGEAKKNSSLHITATQTTDVGTYFCAGIGSSNTGKLIFGQGTTLQVKPDIQNPDPAVYQLRDSKSSDKSVCLFTDFDSQTNVSQSKDSDVYITDKTVLDMRSMDFKSNSAVAWSNKSDFACANAFNNSIIPEDTFFPSSDVPCDVKLVEKSFETDTNLNFQNLLVIVLRILLLKVAGFNLLMTLRLWS
TCR beta: EPEVTQTPSHQVTQMGQEVILRCVPISNHLYFYWYRQILGQKVEFLVSFYNNEISEKSEIFDDQFSVERPDGSNFTLKIRSTKLEDSAMYFCAITGRVSYEQYFGPGTRLTVTEDLNKVFPPEVAVFEPSKAEIAHTQKATLVCLATGFFPDHVELSWWVNGKEVHSGVSTDPQPLKEQPALNDSRYCLSSRLRVSATFWQNPRNHFRCQVQFYGLSENDEWTQDRAKPVTQIVSAEAWGRADCGITSASYHQGVLSATILYEILLGKATLYAVLVSALVLMAMVKRKDFGSGRAKRSGSG
B1 was tested. Which inhibition on target cell growth after 48 h of co-culture (alloreactivity screen) (% target cell inhibition) (108 of 110 HLA types) did it give?
Its inhibition on target cell growth after 48 h of co-culture (alloreactivity screen) (% target cell inhibition) is under 20.

What about the inhibition on target cell growth after 48 h of co-culture (alloreactivity screen) (% target cell inhibition) [1] of the same binder?
Its inhibition on target cell growth after 48 h of co-culture (alloreactivity screen) (% target cell inhibition) is over 20.

— patent US20230272049A1
